pKd: −log10 of the molar value.
Key:
[1] = tested on: yPrp3CTF; assay: EMSA; details: tRNA competitor, EMSA: 20 mM Tris-HCl pH 7.0, 150 mM NaCl, 2 mM DTT, 0.5 ug/ul tRNA, 4 C, titrations: 20 mM HEPES pH 6.8, 150 mM NaCl, 0.33 ug/ul tRNA, human FL/N/C: 10 mM Tris …
[2] = tested on: yPrp3CTF R322A; assay: EMSA; details: tRNA competitor; apparent Kd; EMSA: 20 mM Tris-HCl pH 7.0, 150 mM NaCl, 2 mM DTT, 0.5 ug/ul tRNA, 4 C; titrations: 20 mM HEPES pH 6.8, 150 mM NaCl, 0.33 ug/ul tRNA; human FL/N/C: 10 mM Tris …
[3] = tested on: yPrp3CTF R304A; assay: EMSA; details: tRNA competitor; apparent Kd; EMSA: 20 mM Tris-HCl pH 7.0, 150 mM NaCl, 2 mM DTT, 0.5 ug/ul tRNA, 4 C; titrations: 20 mM HEPES pH 6.8, 150 mM NaCl, 0.33 ug/ul tRNA; human FL/N/C: 10 mM Tris …
[4] = tested on: yPrp3DUF1115; assay: EMSA; details: tRNA competitor; apparent Kd; EMSA: 20 mM Tris-HCl pH 7.0, 150 mM NaCl, 2 mM DTT, 0.5 ug/ul tRNA, 4 C; titrations: 20 mM HEPES pH 6.8, 150 mM NaCl, 0.33 ug/ul tRNA; human FL/N/C: 10 mM Tris …
[5] = tested on: yPrp3CTF R322A; assay: ITC; details: 20 C, GAGA-fused RNA; EMSA: 20 mM Tris-HCl pH 7.0, 150 mM NaCl, 2 mM DTT, 0.5 ug/ul tRNA, 4 C; titrations: 20 mM HEPES pH 6.8, 150 mM NaCl, 0.33 ug/ul tRNA; human FL/N/C: 10 mM Tris …
[6] = tested on: yPrp3CTF; assay: ITC; details: 20 C, GAGA-fused RNA; EMSA: 20 mM Tris-HCl pH 7.0, 150 mM NaCl, 2 mM DTT, 0.5 ug/ul tRNA, 4 C; titrations: 20 mM HEPES pH 6.8, 150 mM NaCl, 0.33 ug/ul tRNA; human FL/N/C: 10 mM Tris …
[7] = tested on: yPrp3CTF R304A; assay: ITC; details: 20 C, GAGA-fused RNA; EMSA: 20 mM Tris-HCl pH 7.0, 150 mM NaCl, 2 mM DTT, 0.5 ug/ul tRNA, 4 C; titrations: 20 mM HEPES pH 6.8, 150 mM NaCl, 0.33 ug/ul tRNA; human FL/N/C: 10 mM Tris …
[8] = tested on: yPrp3DUF1115; assay: ITC; details: EMSA: 20 mM Tris-HCl pH 7.0, 150 mM NaCl, 2 mM DTT, 0.5 ug/ul tRNA, 4 C; titrations: 20 mM HEPES pH 6.8, 150 mM NaCl, 0.33 ug/ul tRNA; human FL/N/C: 10 mM Tris …

Row | Substance | binding signal (fold lower affinity than wt) [1] | pKd [2] | pKd ([1]; apparent Kd) | pKd [3] | pKd [4] | pKd [5] | pKd [6] | pKd [7] | pKd [8]
1 | yU4/U6 stem II+13nt U6 C69G | 2 |  |  |  |  |  |  |  | 
2 | yU4/U6 stem II+13nt |  | 5.58 | 6.04 | 5.80 | 5.74 | 6.40 | 6.96 | 6.59 | 6.42
3 | yU4/U6 stem II+13nt U4 C12G | 2 |  |  |  |  |  |  |  | 

— paper PMC4520091
